Assay results from article PMC10672205, “Towards a High-Affinity Peptidomimetic Targeting Proliferating Cell Nuclear Antigen from Aspergillus fumigatus” (Journal of Fungi, 2023).
Like-named read-outs stand apart in the source and are kept apart here. Ends that are not written are not given here. Peptide text beside a SMILES is read from it.

Key:
[1] = molecular target: afumPCNA (A. fumigatus PCNA) (Aspergillus fumigatus, UniProt A0A229Y5V5); assay: biochemical; assay type: binding
Procedure: Surface plasmon resonance (SPR) experiments were performed as previously described. The running buffer used for ligand attachment and analyte-binding experiments was a 10 mM HEPES buffer with 150 mM NaCl, 3 mM EDTA, and 0.05% Tween-20, adjusted to pH 7.4 with 2 M NaOH. A GE CM5 (series S) sensor chip was primed with the running buffer and preconditioned with successive injections (2 × 50 s, 30 μL/min) of 50 mM NaOH, 10 mM HCl, 0.1% SDS, 0.85% H3PO4, and 50 mM glycine pH 9.5, respectively. The surface was then activated with an injection of 0.2 M 1-ethyl-3-(3-dimethylaminopropyl)carbodiimide (EDC) and 50 mM N-hydroxysuccinimide (NHS) (600 s, 10 μL/min). A. fumigatus PCNA (5 μL, 12 mg/mL) was diluted into the running buffer (245 μL). Upon the preactivation of the surface, the protein was further diluted to a final concentration of 25 μg/mL in 10 mM NaAc (~pH 4.6). This solution was immediately injected over the target flow cell (10 μL/min) to immobilize ~1500 RU. Both the target and reference flow cells were then blocked with 1.0 M ethanolamine at pH 8.5 (600 s, 10 μL/min). The chip was left to stabilize before sample injections commenced.
Peptide stock solutions for use in SPR experiments were prepared in MilliQ water. The peptide stock concentration was determined via 205 nm absorbance with NanoDrop2000. The ε205 for each peptide was calculated using an online calculator (http://nickanthis.com/tools/a205.html, accessed on 22 August 2022 [24]); however, additional glycine residue was added to each peptide sequence to account for the terminal amide of the peptides synthesized in-house. The peptide stock solution’s concentration was then calculated using Beer’s Law.
A 2-fold serial dilution was performed for each peptide, with 8 samples injected sequentially from the lowest to highest concentrations; they were preceded by a buffer-only blank injection. After each injection, the surface was regenerated with 2 M NaCl (2 × 30 s, 25 μL/min). All data were analyzed using the GE Biosystems Biacore S200 Evaluation Software, Version 1.0 (Build: 20).

[2] = molecular target: Aspergillus fumigatus proliferating cell nuclear antigen (Aspergillus fumigatus); assay: SPR
[3] = molecular target: T1, human proliferating cell nuclear antigen (human, UniProt P12004 1-259); assay: SPR; peptide against human PCNA, tested in triplicate; immobilisation of human PCNA not described here (SPR as previously described, ref. 18); settings: both partners purified
T1 construct: also called hPCNA; human PCNA

[4] = afumPCNA Binding Affinity KD (nM) ± SD (nM)
[5] = read-out: afumPCNA Binding Affinity KD (nM) ± SD, SPR steady-state affinity, afumPCNA immobilised on CM5 chip (~1500 RU), 10 mM HEPES, 150 mM NaCl, 3 mM EDTA, 0.05% Tween-20, pH 7.4, 8 x 2-fold dilutions, contact 40 s, dissociation 30 s, KD ± SD
[6] = afumPCNA Binding Affinity KD (nM) ± KD SD (nM)

T1 sequence (P12004 1-259): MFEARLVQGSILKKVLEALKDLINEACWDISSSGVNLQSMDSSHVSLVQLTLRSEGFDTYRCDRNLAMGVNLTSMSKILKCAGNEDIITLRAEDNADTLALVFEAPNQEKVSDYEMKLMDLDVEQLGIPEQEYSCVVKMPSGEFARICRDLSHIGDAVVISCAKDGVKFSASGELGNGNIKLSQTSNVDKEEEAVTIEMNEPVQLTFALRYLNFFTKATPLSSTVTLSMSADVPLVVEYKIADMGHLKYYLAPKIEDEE

## CSCC[C@H](NC(=O)[C@H](CO)NC(=O)[C@@H](NC(=O)[C@H](CCC(N)=O)NC(=O)[C@H](CCCNC(=N)N)NC(=O)[C@H](CCCNC(=N)N)NC(=O)[C@@H](N)CCCCN)[C@@H](C)O)C(=O)N[C@H](C(=O)N[C@@H](CC(=O)O)C(=O)N[C@@H](Cc1ccc(O)cc1)C(=O)N[C@@H](Cc1ccccc1)C(=O)N[C@@H](Cc1c[nH]cn1)C(=O)N[C@@H](CO)C(=O)N[C@@H](CCCCN)C(=O)N[C@@H](CCCNC(=N)N)C(N)=O)[C@@H](C)O [p21μ-FY150151YF] (H-KRRQTSMTDYFHSKR-NH2)
[1]; [4]
  Kd: 96.4 ± 19.6 nM

## CSCC[C@H](NC(=O)[C@H](CCCNC(=N)N)NC(=O)[C@H](CCCNC(=N)N)NC(=O)[C@@H](N)CCCCN)C(=O)N[C@H](C(=O)N[C@@H](CO)C(=O)N[C@@H](CCSC)C(=O)N[C@H](C(=O)N[C@@H](CC(=O)O)C(=O)N[C@@H](Cc1ccccc1)C(=O)N[C@@H](Cc1ccc(O)cc1)C(=O)N[C@@H](Cc1c[nH]cn1)C(=O)N[C@@H](CO)C(=O)N[C@@H](CCCCN)C(=O)N[C@@H](CCCNC(=N)N)C(N)=O)[C@@H](C)O)[C@@H](C)O [p21μ-Q144M] (H-KRRMTSMTDFYHSKR-NH2)
[1]; [5]
  Kd: 41400 nM

## CC[C@H](C)[C@H](NC(=O)[C@H](CCCNC(=N)N)NC(=O)[C@@H](NC(=O)[C@H](CCC(N)=O)NC(=O)[C@H](CCCNC(=N)N)NC(=O)[C@H](CCCNC(=N)N)NC(=O)[C@@H](N)CCCCN)[C@@H](C)O)C(=O)N[C@H](C(=O)N[C@@H](CCC(=O)O)C(=O)N[C@@H](Cc1ccc(O)cc1)C(=O)N[C@@H](Cc1ccccc1)C(=O)N[C@@H](Cc1c[nH]cn1)C(=O)N[C@@H](CO)C(=O)N[C@@H](CCCCN)C(=O)N[C@@H](CCCNC(=N)N)C(N)=O)[C@@H](C)O [p21μ-RD2] (H-KRRQTRITEYFHSKR-NH2)
[1]; Affinity KD (nM) (Table S1)
  Kd: 20.3 nM

## CSCC[C@H](NC(=O)[C@H](CO)NC(=O)[C@H](CC(=O)O)NC(=O)[C@H](CCC(N)=O)NC(=O)[C@H](CCCNC(=N)N)NC(=O)[C@H](CCCNC(=N)N)NC(=O)[C@@H](N)CCCCN)C(=O)N[C@H](C(=O)N[C@@H](CC(=O)O)C(=O)N[C@@H](Cc1ccccc1)C(=O)N[C@@H](Cc1ccc(O)cc1)C(=O)N[C@@H](Cc1c[nH]cn1)C(=O)N[C@@H](CO)C(=O)N[C@@H](CCCCN)C(=O)N[C@@H](CCCNC(=N)N)C(N)=O)[C@@H](C)O [p21μ-T145D] (H-KRRQDSMTDFYHSKR-NH2)
[1]; Affinity KD (nM) (Table S1), SPR steady-state affinity against AfumPCNA, 8x 1 in 2 dilutions from Top Conc, On/Off 40/30 s
  Kd: 4110 nM

## CSCC[C@H](NC(=O)[C@H](CO)NC(=O)[C@H](CCCCN)NC(=O)[C@H](CCC(N)=O)NC(=O)[C@H](CCCNC(=N)N)NC(=O)[C@H](CCCNC(=N)N)NC(=O)[C@@H](N)CCCCN)C(=O)N[C@H](C(=O)N[C@@H](CC(=O)O)C(=O)N[C@@H](Cc1ccccc1)C(=O)N[C@@H](Cc1ccc(O)cc1)C(=O)N[C@@H](Cc1c[nH]cn1)C(=O)N[C@@H](CO)C(=O)N[C@@H](CCCCN)C(=O)N[C@@H](CCCNC(=N)N)C(N)=O)[C@@H](C)O [p21μ-T145K] (H-KRRQKSMTDFYHSKR-NH2)
[1]; [5]
  Kd: 10000 nM

## CSCC[C@H](NC(=O)[C@H](CO)NC(=O)[C@@H](NC(=O)[C@H](CCC(N)=O)NC(=O)[C@H](CCCNC(=N)N)NC(=O)[C@H](CCCNC(=N)N)NC(=O)[C@@H](N)CCCCN)[C@@H](C)O)C(=O)N[C@H](C(=O)N[C@@H](CC(=O)O)C(=O)N[C@@H](Cc1ccccc1)C(=O)N[C@@H](Cc1ccc(O)cc1)C(=O)N[C@@H](Cc1c[nH]cn1)C(=O)N[C@@H](CO)C(=O)N[C@@H](CCCCN)C(=O)N[C@@H](CCCNC(=N)N)C(N)=O)[C@@H](C)O [p21μ]
[1]; [4]
  Kd: 265 ± 5.9 nM

## CC[C@H](C)[C@H](NC(=O)[C@H](CO)NC(=O)[C@H](CCCNC(=N)N)NC(=O)[C@@H](NC(=O)[C@H](CCCNC(=N)N)NC(=O)[C@H](CCC(N)=O)NC(=O)[C@H](CCCNC(=N)N)NC(=O)[C@H](CCCNC(=N)N)NC(=O)[C@@H](N)CCCCN)C(C)C)C(=O)N[C@@H](C)C(=O)N[C@@H](CO)C(=O)N[C@@H](Cc1ccccc1)C(=O)N[C@@H](Cc1ccccc1)C(=O)N[C@@H](Cc1c[nH]cn1)C(=O)N[C@@H](CO)C(=O)N[C@@H](CCCCN)C(=O)N[C@@H](CCCNC(=N)N)C(N)=O [p21μafumDNALIG] (H-KRRQRVRSIASFFHSKR-NH2)
[1]; [6]
  Kd: 458 ± 118 nM

## CC(C)C[C@H](NC(=O)[C@H](CCCNC(=N)N)NC(=O)[C@H](CO)NC(=O)[C@H](CCC(N)=O)NC(=O)[C@H](CCCNC(=N)N)NC(=O)[C@H](CCCNC(=N)N)NC(=O)[C@@H](N)CCCCN)C(=O)N[C@@H](CCC(=O)O)C(=O)NCC(=O)N[C@@H](Cc1ccccc1)C(=O)N[C@@H](Cc1ccccc1)C(=O)N[C@@H](Cc1c[nH]cn1)C(=O)N[C@@H](CO)C(=O)N[C@@H](CCCCN)C(=O)N[C@@H](CCCNC(=N)N)C(N)=O [p21μafumFEN1] (H-KRRQSRLEGFFHSKR-NH2)
[1]; [6]
  Kd: 713 ± 56.9 nM

## CC[C@H](C)[C@H](NC(=O)[C@H](CC(=O)O)NC(=O)[C@@H](NC(=O)[C@@H]1CCCN1C(=O)[C@H](CCSC)NC(=O)[C@H](CCCNC(=N)N)NC(=O)[C@H](CCCNC(=N)N)NC(=O)[C@@H](N)CCCCN)[C@@H](C)O)C(=O)N[C@@H](CCCNC(=N)N)C(=O)N[C@@H](CC(N)=O)C(=O)N[C@@H](Cc1ccccc1)C(=O)N[C@@H](Cc1ccccc1)C(=O)N[C@@H](Cc1c[nH]cn1)C(=O)N[C@@H](CO)C(=O)N[C@@H](CCCCN)C(=O)N[C@@H](CCCNC(=N)N)C(N)=O [p21μafumRFC] (H-KRRMPTDIRNFFHSKR-NH2)
[1]; [6]
  Kd: 94.8 ± 8.76 nM

## p21µ peptide (141-155)
[2]
  Kd: 265 nM

## p21µ-FY150151YF peptide
[2]
  Kd: 96.4 nM

B1: p21µ-T145D peptide (peptide)
peptide: KRRQDSMTDFYHSKR-NH2
[2]
  Kd: 4100 nM

B2: p21µ-M147L peptide (peptide)
peptide: KRRQTSLTDFYHSKR-NH2
[2]
  Kd: 382 nM

B3: p21µ-RD2 peptide (peptide)
peptide: KRRQTRITEYFHSKR-NH2
[2]
  Kd: 20.3 nM

B4: p21µ-Y151F peptide (peptide)
peptide: KRRQTSMTDFFHSKR-NH2
[2]
  Kd: 167 nM

B5: p21µ-D149E peptide (peptide)
peptide: KRRQTSMTEFYHSKR-NH2
[2]
  Kd: 401 nM

B6: p21µ-M147I peptide (peptide)
peptide: KRRQTSITDFYHSKR-NH2
[2]
  Kd: 37.1 nM

B7: p21µ-T145K peptide (peptide)
peptide: KRRQKSMTDFYHSKR-NH2
[2]
  Kd: 10000 nM

B8: p21µ-Q144M peptide (peptide)
peptide: KRRMTSMTDFYHSKR-NH2
[2]
  Kd: 41400 nM

B9: p21µ-afumRFC peptide (peptide)
peptide: KRRMPTDIRNFFHSKR-NH2
notes: also called p21μafumRFC; p21µRFC; source: synthetic peptide, Genscript Biotech (>95%, HPLC)
[3]
  Kd: 295 nM
